In the DeepSol protein solubility set:

Test: soluble on expression in E. coli; label from the status in PepcDB or PDB records
With “GPGSMAASSVASVSATKASALAAKKAEKDAHDSRSLFEEYEQLSKDIKNIQLKTMICRTETHQLMKEESAAKQEVKRIQAVPLVLGNFVEVVDSVRGIVSGTSGSQYFVRILSTLNKEHLKPNVSVGLHKSSNACVQLLPSETDATITLLNSSDRPDVTYSDVGGLDMQKQEIREAVELPLTHAGLYEQIGIDPPRGVLLYGPPGTGKTMLVKAVARHTKASFIRVVGSEFVQKFLGEGPRKVRDVFRLARENAPSIIFIDEVDSIATKRFDAQTGADREVQRVLVELLTQMDGFDQTTNVKVIMATNRWDTLDPALLRPGRLDRKIEFPYPDRRQKRLVFQVCTSKMNLSPEVDLEDYVTRPEKLSGADIQSICQEAGMLAVRKNRYVILPRDIENAYRTVIKKTGDETYDFYS” the “soluble on expression in E. coli” value was “not soluble”. For “GPGSMAPAVIEIHIPLDRIRNEEYATDDLLLNCLSKIGDTPEEDGLPLRTWILREAHQALIKSPKLRTVLVKPQTVKDKPTHFQICFDE”, the “soluble on expression in E. coli” value was “soluble”. In the case of “GPGSMASQPGDALGKIEYWVQYIDCALKHPRPLPAGKHAHRQSLETIPEVAELYHCIYKLYNEEESSVWFREPVNALAQEIFTYYDVVKSPMSLRHILDNIVKGDTYSTALQVMEDVELIWKNCITFNGANSLLATEAGKCRSALDRIRRAYQDDQRITVEEAERLFRVISSMQEQQLIDNIAEYLRRDDPTSIDETGAVNFDMLKRKHFRNLERIVDNYSKSRTRS”, the “soluble on expression in E. coli” value was “soluble”. With “GPGSMATGTSPPSLVTVPLLRAALLLRWRLLSLQFDGDSNMCVLAEDAADGLPRGTRLEMYGSNVQLVRQLSGAGEALLQPSVIGEVTATLEGALTDDTTERRGRQIVAVLSPPHLSSSLGGPEFKGNEDVEVIAQWTLSRKRVENVQRVTDTTKRDGVKNEEPPPLMENGIVFPSPRFAGLRVLRAARHSFALLLENELRERTGESEVGKVGPLAVLDVSELDCTFSRVAVQMAVERGLVLEQHMHVNFVPLTPAATATADETVRSLLRLVAHPTRGAHLDPLRPLQARCFKLGCCTFCSKGRGSAANEGSKKDEASLVSRLAGVISKIHSNGTLLVNLVGDGINHEELRQGAEMHLVEALLRADRCGVVIDEVLPAADTRGTAISFVVSLC” the “soluble on expression in E. coli” value was “not soluble”. In the case of “GPGSMDLNMRLLTRIFTYRRNHAEQGTIMSSKIAELSGRILSQQQYSQILEQRRWLQGLLKEVSLDMGAKEKEKSASPVVLPYGSIVSGTSFKDGDADYIVSFPIVSESTRQSGACVIDRERQEKFLSDIFSHIRKRNSDVELHPQRIFRARVPIVQYVRKSGQESARFDLSLSLDGLKNSLLLRQYMAGDPRLRLGVLGAKQWGREQQILNARRGWISPYALSIMYIHYMKETGRTALSFDEEAVSQRVNAIVSTAAESEGDISHVDELASILPLQEADMLLVEKDVFDFFAFYGTPGGFDFDASVVDIRSRERFSSKDQWCQLLDQLDERERWNLLGHEVILLRDPFEPHSLGRSVDFFRGEEIRERFRSAAVRKEPLSLFAFL”, the “soluble on expression in E. coli” value was “not soluble”. In the case of “GPGSMELSFPDKYYEVAKYFDYYVGNLEESPLLSDAQRLMFYALRQQADHGQCTTAAPSFWNSRERHKHQAWKQLGRMSTFEAMVFFVQQFEQLLTQLENSTGQPASTSGATARAGAVDWPSRLREMKSKMAPSPGNRPHRSEALASDGAHATNDILAVRRGPSPA”, the “soluble on expression in E. coli” value was “soluble”. In the case of “GPGSMEWSSQSALPGVEGSPGYGRLCSATSGGVGAFQQFSPATAATVGDTTSVPTEAPSSVSITVGEAMDGVALQCERRGLTNAATWLSEMSLHALPSLLATPLQACSYGGHGGNSLFSPLHRAIHLDSGVFGDHAIAGGVRSTPSAGWQRLHRVALGYFIKGEYQRCHHLILREVMRNTAVGSSCGVPLPSTTQRTWPMPAGEVPDNEGGLSLPLPEVVRGFRTTTLPPLLQFLSLYALFMDGVKAKQLSNNASQGGGAESSSMGRGGQQRALHPHARVLRAYLLEAMRNPVNMLNLPSSNNSDPEPQHGDGGDDGAALHVAVGGALPGAHHTSSAKRPWTTSSAVWLASRAVSAATTTGTAAVMTAGASASRPRGNKAGQLHARYSLPLHCCLVCLLERLSSRLSSRESSGSARRRIGSGTYVGLVAYRSVPVVAHGCSAAGTSHAPGKCDVSAGGGECQPTTAVRLGRPRVPRES”, the “soluble on expression in E. coli” value was “not soluble”. With “GPGSMFRKAESAHAAINATHLTQPTPNCGTVLHVSIAMHDEGLDDHPNDRLFIRGLPQWATKEHLRQMFAPYGVITECAVLMNPLGQCKGSGFVQFSSQQEATAAIKARDSISMDNWPNQLEVKYSESAEVRQMRQERNRNRQRHWLPSPQYRGGNTPSSLPSPYPGFSPPLSLIPSPQAFPVMNAMPFSMVYSPTPATTGAP” the “soluble on expression in E. coli” value was “soluble”. In the case of “GPGSMIIWAVGTTNKAKLDSVDIAVRMCFPSYQHDVRPVAVLSIVRAQPISAEESQQGAQHRAHEALSLVPEAHYGVGLEGGLEKISDRWFECGWMYVIERSTGRCGIGSSARFEMSQKLMSKILDEGKELAEVMDEMTGETDVRSGQGAMGVLTAGYLNRAESYSHGLIFALAPFLSDHKYWD”, the “soluble on expression in E. coli” value was “not soluble”. In the case of “GPGSMKAQPKQIGCYLVTEASREESFVVLEGHEVDNPNRHVRAKALLEDRAAPENISVRIGIEENLLGRSVAYPRARCRALEQEEGKSVRASNDSLAELWRARPL”, the “soluble on expression in E. coli” value was “soluble”. With “GPGSMKGCCRLLSAAEAASLIRRIGPFAVHRGEATGVIEILSGDPNHPVKKLNLLGLAYAAALTELSELLSEELNAEARVAIFAARDGCSFSAGIDLKELSGMRPPSGSGAAATAAASSGPKAPAMLLQHQHRVVRTFQDGISSLARCRIPIIAAIDGHCIGGATSVASSCDVRYTTTRATFSVKEAAVGLAADIGVLQRLPAIIGEGRTRELAFTCRDFSGVEAKAMGFVEEVCADYPALLAHARKRAAQIAANSPLGVQNTKLILNWERERAAQTSLEYQAAINAFSLHCSDIPEAARAFAERREPVFTDYMVNPRGGPPHSRQS” the “soluble on expression in E. coli” value was “not soluble”. In the case of “GPGSMLRPTCPVAKNLTSFATKGTMRGGIPRIYYTWMKPGSATRRRFEKMRNPFVNLETGTSLYFRDTRDSAEAVAHAADSKGLKGMDNGVDLYNEYKIVPDLYPEGFQWKHKLNTEYNQWRSNTWLTPELIPQEHRGRFLCNFQLNIVAYDMRVVKFSPKDHRQWIYCVLYVGTGKGIAGFGRAVAPSTQEARNEAIREAFSNIIAVDLEQEGPMYPVRINADGARVLLYPARRIIANFRVADILCAFGFQNAGCKINLKASNNPKAPTHTVEGVFEAVKALRSVSEIAASRGKVPHSLVYNIYPYLEEMRRRKGMMAMHPPGKDGIFMPNRVVDNRMPDHLKKGYYDDVYWKDFFAGSKEQLNEPKMGLRGDELRAQLEESQGRTAKRSNRRTLDDVLRRLGKTSRDLGALQVVNPRLDAKLPTHMKRNYLLH”, the “soluble on expression in E. coli” value was “not soluble”. With “GPGSMNQLISVINELHDAFAGVKMNIKLNLPQIAVVGSQSCGKSSVLESIVGKDFLPRGSGIVTRCPLVLQLVQLPKSNEEEWGEFLHIPNKKFYDFNEIQNEITRRTIEIAGPSAITDKPINLKVYSSAVLNLTLVDLPGLVMNAVGDQPKDIDRQIKDMVTRYVLPKNTIILAISPANTDLATSQSLRLAKQLDPEGVRTVGVLTKIDLMDKGTDCFDVLQNRVLQLRHGFVGVVCRSQQDINDCKSMEDARRSEYEFFANSPIYSPIAEEAGTAYLSKKLNFLLLEHIKAVIPDLKHHVDQLMEATKKQMEKLGMFEQDITEPTAQLLYLIKVFSDALNQTIDGGITDATKELLGGARLDYIFHECFATYVTSLSATKDLTDDYIRINTRNMAGMHATLFPSDQVFVALSKQQINRLEEPCIKCVTFVYEELGKIVEICAGKVDRYPNLKEAVIAICKKMLFDYRLPTSTHVRTIIKAERGFINVKHPMMDELAQRALSNIYGTTSGESSSPPRNSSGPNASAAGGTQADPKQSGKDIKKDDKRGVRDEKRPEKPKEQGNTDSAISPGNKSDMNDVPSRIMLGKTMTMHEQFMNSAIREMVEGYFSIVKGNVADQVPKAITLLMITRLREEVYARLVSELYSDKTAKALLSEPPGIATQRKAAKEMLEALTKAQNALNSVRDYQLTKEPASSMQAGT” the “soluble on expression in E. coli” value was “soluble”. In the case of “GPGSMPAPSLATRHFTFTHEVPADDVFELEENAPRRVPIACVTLQMVSFNRRCFWFHIAMTREGFSAPPPPFGACAVSFSGVSGDSAATTLVDDTALPQLGFKEAQHEVGVGAPNPQAVFADSLARRLSRRLEREFTSGVAVYVACGIIGENQSDLLGTPAGYGSEVTRRFGAEVFKHAMDLICEEGLGKATAA”, the “soluble on expression in E. coli” value was “not soluble”. In the case of “GPGSMPPKRPLYEVLGVSQDAAEEEISRVYRRMALQYHPDRNPNGEAKFKDIANAYSVLGDSEKRRVYDATGVIPGGAAETDNEATMAERSAEMKERVQVFYATYAGSPEETEDVISCYKKCKGNFRRMAREELLFDNKKQGEIQRLMELVRSLVESGRLNPTEAWKVTNTAAVLKQIERSLTRERKEAKDALDAMGLSAKEGEGGLHALQALMKRDQEAEWSKMMSNLESKYVKPKSATKGVEQNGKRNKRKAEATKTVSAPPQKKSRR”, the “soluble on expression in E. coli” value was “soluble”. For “GPGSMPYIRMAYEKAISDVPADTLDKVKAVLSALEEVLSVRTFLVGERLTIADVAVAFSIHWVYRCNRKHGQTLYKEYRAVYRHYNTVMRHPKIHAMMRKEGAAIGPLRS”, the “soluble on expression in E. coli” value was “not soluble”. For “GPGSMQKQHAPGRGLVLHSHKVKGQQQERNDSLVQCAQHPPLQKRVNPHPHSHSSKPIPNIFVVITGLVVNPRTGSFHDFRSPCFPPPRGGGKGRNAWGNRNGEKVEAALAALQIGIFGDQHHIAGKEACQVDKKPSCSFFLTWPHILPTRFQRKKKRKNY”, the “soluble on expression in E. coli” value was “not soluble”. For “GPGSMQQPTAQEEQYVNVPVPLTGEEKGWQEVAPNRYIRYEQFGGSDAEMNFIVNLFTAELTEPYSSFTYQYFVFGWPDLCITAFGVESETKPDNSVVGEKVGAVVSRVTRKGAGMPLRGYVAMFAVVPKFRGYRLGSRLVSLTVELMRAKGCDEVYLETPTSNVRALGLYLNLGFAKTKYLPRYYLDHSDAVRLKLWLKDAIPKSVPETASTAGVEKA”, the “soluble on expression in E. coli” value was “soluble”. With “GPGSMQSNAPFDPEREALRNEAIKKTVERNVTQARLKKVNDDVKLQQRELDKVEDQVNALLSIGHYVGEVLKRVDEERFIVKSISGARHLVGYRKSIKPEKLKFGARVALEITTFTIVKVLPREVDPQVYSMQYMSSDKDVSFQDIGGLQPQMRQMREVIELPLTNPELFVRVGIAPPKGVLLYGPPGTGKTLLAKAIAANVDAAFLKIVASSIVDKYIGESARVIREMFAYAREHEPCIIFIDEVDAIGSKRIEGSSSDREIQRTLMELLNQMDGFDKLGKVKVIMATNRPDTLDAALMRPGRLDRKIEIPLPNEAGRLDVLRIHSAKITKKGDIDFESVVKLSEGFNGADLRNVCTEAGMFAIRAGRDYVENSDFNKAVRKVADMKRLEGTAHQYSDQ” the “soluble on expression in E. coli” value was “not soluble”. In the case of “GPGSMRARSLLRQQASAATLQPLRSVVAIGLRQEFDPHWPLPLPPPLPMNKQKHTLVLDIDETLIHTYAMGLHDDSKDHTRDPALQGVSLIDYNVLLRPHLKEFLEEVNQLFEVVFWTAGTASYCCAVLDALEQQVMQLPRSFYSYVELAKESRKMKSSTSHTNFYALSRTQTLEQQGYMKYLPMLGRKMSSVVMLDDNVRSFPLTPRNGIRIDAFDPDDHVLQRYIFALRRVQKEKPHEMEAALVQCLQQGQQE”, the “soluble on expression in E. coli” value was “not soluble”. In the case of “GPGSMRFRRVLAPLAASPHRWKTQRSPRGEETMGEGGAIEPDTSEAWVRNYVARAVREGRQTKESAEYFESIMNDQVEFRQYIQEARRLLNNQDPRTLTKYQRGHFAERLSRQMSGVAAERLMRAHAEESNARRHTQDGTPTGENYWFEAGNTLASPSVPGFVKDEVMREMREDRKKTSAAFEESEELQAMADKDEAFAEHLRRQRQHLFRSNDDVN”, the “soluble on expression in E. coli” value was “not soluble”.
